Patent US20220073618A1 (NANJING GENSCRIPT BIOTECH, published 2022)

Assays:
[1] = target: T1, biotin-labeled PD-L1-Fc (human, UniProt Q9NZQ7 19-238, limits assumed, biotin-labeled (sites not given)); experiment: flow cytometry: biotin-PD-L1-Fc binding to CHO cells expressing human PD-1 with titrated antibody; enhancement of PD-L1/PD-1 binding
T1 construct: not shown: Fc part
Protocol: (§1) In the FACS test, CHO cells expressing human PD-1 and parent cells as a negative control were washed 3 times with PBS. 2.5×10⁵ detection cells and 50 μl of 3-fold serial dilutions of purified antibody with an initial concentration of 300 nM were added to a 96-well plate. […] Then the cells were washed 3 times with PBS, 100 μl of iFluor647-labeled streptavidin (1 μg/ml) was added, and the cells were incubated at 4° C. for 45 min. Finally, the cells were washed 3 times with PBS, and the signal was read on FACS BD Calibur.

[2] = target: T2, human PD-L1 protein (human, UniProt Q9NZQ7 19-238, limits assumed); experiment: ELISA on human PD-L1 protein; antibody kept at 40 C for 0 (D0), 7 (D7) or 14 (D14) days
Protocol: The antibody samples were treated separately at 40° C., and then centrifuged to remove the pellet. Then the amount of remaining antibody was evaluated by ELISA. (test after treatment at 40° C. for 7 days (D7) and 14 days (D14) separately; for each test, the untreated sample (D0) stored at −80° C. is used as a control) (FIG. 3)

[3] = target: T1, biotin-labeled PD-L1-Fc; experiment: ELISA: biotin-PD-L1-Fc binding to coated human PD-1 with titrated antibody; enhancement of PD-L1/PD-1 binding
Protocol: (§2) The ELISA plate (Nunc) was coated with 100 μl/well of 0.5 μg/ml recombinant human PD-1 protein in PBS at 4° C. overnight. The plate was washed with PBS-T (0.05% Tween), and blocked with 200 μl/well of PBST containing 1% BSA at 37° C. for 0.5 hr. Then the blocking buffer was discarded, and 50 μl of 10 μg/ml purified antibody to be tested was added to the first test well. 3-fold serial dilutions were made, and a total of 11 test concentration gradients were given. […] The plate was washed 3 times with PBST, and incubated with 100 μl/well of Streptavidin-HRP (SA-HRP, GenScript) at 37° C. for 10 min. Finally, the plate was washed 5 times with PBST, and then a TMB developing solution (GenScript) was added and incubated at room temperature for 15 min in the dark. The reaction was terminated by adding 50 μl of 1M HCl stop solution (Sigma). The plate was read at 450 nm on a microplate reader.

[4] = target: T2, human PD-L1 protein; experiment: ELISA on the antigen (human PD-L1); antibody untreated (0), after oxidative stress (AAPH, 24 h) or deamidation stress (pH 9.0, 48 h); curves not told apart
[5] = target: T3, monkey PD-L1 on cell surface (monkey); experiment: flow cytometry on CHO cells expressing monkey PD-L1, fitted curve
T3 construct: whole, on cells; also called monkey PD-L1 cell line; CHO cells overexpressing monkey PD-L1
Protocol: (§3) CHO cells expressing human or monkey PD-L1 and parent cells as a negative control were washed 3 times with PBS. 2.5×10⁵ detection cells and 100 μl of 3-fold serial dilutions of purified antibody with an initial concentration of 300 nM were added to a 96-well plate and incubated at 4° C. for 1 hr. […] Finally, the cells were washed 3 times with PBS, and the signal was read on FACS BD Calibur.
Moreover, CHO cells overexpressing monkey PD-L1 were used to test the cross-recognition binding to monkey PD-L1 by the antibodies.

[6] = target: T1, biotin-labeled PD-L1-Fc; experiment: ELISA: biotin-PD-L1-Fc binding to coated human PD-1 with titrated antibody, OD 450 nm, fitted curve; enhancement
Protocol: as §2

[7] = target: T4, PD-L1-HIS recombinant protein (human, UniProt Q9NZQ7 19-238, limits assumed); experiment: SPR (Biacore 8K), antibody captured on chip, PD-L1-HIS analyte 2.5-80 nM, 1:1 binding model
T4 construct: not shown: His tag
Protocol: The chip surface was equilibrated with HBS-EP buffer at a flow rate of 10 μl/min for 5 min, and then a 1:1 mixture of “NHS+EDC” was injected at a flow rate of 10 μl/min for 420 sec to activate the chip. The capture antibody (goat anti-murine IgG) diluted in 10 mM sodium acetate buffer was injected for about 420 sec at a flow rate of 10 μl/min for coupling, and finally ethanolamine was injected for 420 sec at a flow rate of 10 μl/min to block the surface.
Three pre-cycles were performed with the HBS-EP buffer as a sample to balance the chip to stabilize the baseline. The antibody diluted in HBS-EP buffer was injected for 30 sec at a flow rate of 10 μl/min (where the antibody-antigen binding signal was controlled to about 100 RU by adjusting the capture time between 0-5 min), and then the chip was equilibrated with the buffer for 1 min. The low-concentration antigen 2.5 nM PD-L1-HIS was injected at a flow rate of 30 μl/min for 240/300 seconds, to allow the antigen to bind to the antibody, and then the buffer was injected at a flow rate of 30 μl/min for 720/600 seconds for dissociation. 50 mM HCl were injected three times each for 15 s at a flow rate of 100 μl/min for regeneration, to complete one cycle. The antigen concentration was changed (such as 5 nM PD-L1-HIS) to carry out the cycle for measurement at a next gradient concentration until all gradient concentrations (2.5 nM, 5 nM, 10 nM, 20 nM, 40 nM, 80 nM PD-L1-HIS) and the replicate (such as 10 nM PD-L1-HIS) were tested.
The experimental data was double subtracted (minus the background values of the control channel and zero concentration), and fitted to the “1:1 binding” model in the Biacore 8K evaluation software. Biacore 8K was used to determine the affinity of the antibody to the PD-L1-HIS recombinant protein.

[8] = target: T5, human PD-L1 on cell surface (human, UniProt Q9NZQ7 19-290); experiment: flow cytometry on CHO cells expressing human PD-L1, fitted curve
T5 construct: whole, on cells; also called human PD-L1 cell line; CHO cells expressing human PD-L1
Protocol: as §3

[9] = target: T2, human PD-L1 protein; experiment: ELISA on human PD-L1 protein; antibody treated for 20 min at 70 C
Protocol: (§4) The antibody samples were treated for 20 min at various temperature gradients respectively, and then centrifuged to remove the pellet. Then the amount of remaining antibody was evaluated by ELISA. (The temperature gradient includes: room temperature, 30° C., 40° C., 50° C., 60° C., 70° C., […]) (FIG. 4)

[10] = target: T5, human PD-L1 on cell surface; experiment: cell-based or functional assay
[11] = target: T1, biotin-labeled PD-L1-Fc; experiment: flow cytometry: biotin-PD-L1-Fc binding to CHO cells expressing human PD-1 with titrated antibody, fitted curve; enhancement
Protocol: as §1

[12] = target: T2, human PD-L1 protein; experiment: ELISA on human PD-L1 protein; antibody treated for 20 min (all overlapping curves)
Protocol: as §4

T5 sequence (Q9NZQ7 19-290): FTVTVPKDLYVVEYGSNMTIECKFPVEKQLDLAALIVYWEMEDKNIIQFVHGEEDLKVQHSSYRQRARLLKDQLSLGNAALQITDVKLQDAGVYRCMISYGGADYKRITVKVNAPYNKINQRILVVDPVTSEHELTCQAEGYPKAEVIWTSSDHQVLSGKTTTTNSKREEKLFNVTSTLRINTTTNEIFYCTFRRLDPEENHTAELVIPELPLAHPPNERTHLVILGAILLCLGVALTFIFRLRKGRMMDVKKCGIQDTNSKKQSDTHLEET
T1 sequence (Q9NZQ7 19-238 limits assumed): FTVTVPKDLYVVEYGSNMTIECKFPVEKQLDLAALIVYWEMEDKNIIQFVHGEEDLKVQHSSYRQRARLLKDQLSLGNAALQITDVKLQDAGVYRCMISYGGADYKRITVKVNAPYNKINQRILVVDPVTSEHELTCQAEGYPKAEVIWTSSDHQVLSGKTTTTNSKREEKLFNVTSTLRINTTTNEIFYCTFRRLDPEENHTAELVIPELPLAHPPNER
T4 sequence (Q9NZQ7 19-238 limits assumed): as above
T2 sequence (Q9NZQ7 19-238 limits assumed): as above

EC50 [1]: 38.7 nM
EC50 (read off the curve) [2]: ~0.01 mg/L
EC50 [3]: 0.017 mg/L
EC50 (read off the curve) [4]: ~0.02 mg/L
EC50 [5]: 3.4 nM
LogEC50 [5]: 0.532
LogEC50 [6]: 1.23
Kd [7]: 1.57 nM
koff [7]: 0.000334 s⁻¹
kon [7]: 213000 M⁻¹ s⁻¹
EC50 [8]: 0.478 nM
LogEC50 [8]: -0.321
EC50 (read off the curve) [9]: ~0.04 mg/L
Bottom (best-fit value) of IL-2 release, mixed lymphocyte reaction [10]: 1350
EC50 (µg/ml) of IL-2 release, mixed lymphocyte reaction [10]: 0.0293 µg/mL
LogEC50 (best-fit value) of IL-2 release, mixed lymphocyte reaction [10]: -1.53
Span (best-fit value) of IL-2 release, mixed lymphocyte reaction [10]: 1020
Top (best-fit value) of IL-2 release, mixed lymphocyte reaction [10]: 2370
LogEC50 [11]: 1.59
EC50 (read off the curve) [12]: ~0.01 mg/L
B1: AH02029 (antibody, human IgG1, V domains shown)
VH: QVQLQESGPGLVKPSQTLSLTCTVTGYSITSGYTWHWIRQHPGKGLEWIGYIHYSGSTKYNPSLKSRVSISRDTSKNQFSLKLSSVTAADTAVYYCARNSLFASWGQGTLVTVSS
VL: DIVLTQSPDSLAVSLGERATINCRASESVDTYGDSFMHWYQQKPGQPPKLLIYRASNLESGVPDRFSGSGSGTDFTLTISSLQAEDVAVYYCQQSNEAPYTFGGGTKLEIK
notes: also called mPD-L1Ab-5BM clone AH02029
